Results: patent US20260234584A1, “R-LOOP SENSOR” (FUNDAÇÃO GIMM - GULBENKIAN INSTITUTE FOR MOLECULAR MEDICINE, priority 2023, published 2026)

Assays:
Assay type in all cases: cell-based, human
[1] = system: R-loops foci in U2OS cells; assay: Quantification of RHINO R-loops foci after transcription inhibition with triptolide
Excerpt: (A) Illustration of RHINO structure (left) and DNA:RNA hybrid labelling in an R-loop behind a transcribing RNA Pol II complex (right). The positions of the amino acids substituted in the RHINO mutants are indicated by red […]) and blue ([…]) asterisks. (B) Confocal microscopy images of RHINO expressed in U2OS cells together with mCherry-H2B to mark the cell nucleus and a corresponding max. intensity projection. RHINO spots throughout the nucleoplasm (highlighted in inset image) and intense labelled foci in the nucleoli are shown. (C) Comparison of RHINO and S9.6 antibody labelling of DNA:RNA hybrids. The nucleolar signals of S9.6 and RHINO are mutually exclusive (inset). (D) Expression of two RHINO mutant constructs and mCherry-histone-H2B. […] (E) Max. intensity projections of live U2OS cells expressing RHINO alone (left) or co-expressing mScarlet-i tagged human RNase H1 (right) and quantification of RHINO foci for each condition. (F) Quantification of RHINO foci upon use of a rapid inducible RNase H1. […] Quantification of RHINO foci before and 1 h after TA addition. (G) Max. intensity projections of random live U2OS cells expressing RHINO before and after 1 h incubation with Triptolide and quantification of RHINO foci number. (H) Max. intensity projections of the same live U2OS cells expressing RHINO before and after 1 h incubation with Triptolide and quantification of RHINO foci number. […]

[2] = system: nucleolar R-loops in U2OS cells; assay: FRAP on individual nucleolar RHINO foci; conditions: in 200 seconds
Excerpt: (A) Labelling of nucleolar R-loops in live U2OS cells. Nucleoli are labelled by a red fluorescent nucleolar marker. Bright RHINO foci in several nucleoli are indicated with arrowheads. (B) Dissecting R-loop localization in nucleolar substructures. U2OS cells expressing RHINO were fixed and stained with an anti-UBF antibody marking the fibrillar centres/dense fibrillar component interface. Display of two super-resolution microscopy image sets acquired with structured illumination (top) and Airyscan 2 technology (bottom). (C) Measurements of nucleolar R-loops dynamics by FRAP on RHINO foci inside nucleoli. The fluorescence within the red circle was bleached (false colour images) and the recovery monitored over time. […] (D) Labelling of Tel-R-loops in live U2OS cells co-expressing RHINO and iRFP-TRF2. […]
Owing to the lack of robust tools to image and collect quantitative parameters of R-loops in live cells, a clear understanding of R-loops dynamics and of their specific kinetics at distinct genomic loci is scarce. […] To investigate the dynamics of nucleolar R-loops, fluorescence recovery was performed after photobleaching (FRAP) experiments in individual nucleolar RHINO foci (FIG. 2C). We observed a rapid turnover of fluorescent RHINO molecules, which restored 90% of the initial fluorescence intensity in 200 seconds (FIG. 2C).

[3] = system: telomeric R-loops in U2OS cells; assay: FRAP at labelled telomeres
Excerpt: (A) Labelling of nucleolar R-loops in live U2OS cells. Nucleoli are labelled by a red fluorescent nucleolar marker. Bright RHINO foci in several nucleoli are indicated with arrowheads. (B) Dissecting R-loop localization in nucleolar substructures. U2OS cells expressing RHINO were fixed and stained with an anti-UBF antibody marking the fibrillar centres/dense fibrillar component interface. Display of two super-resolution microscopy image sets acquired with structured illumination (top) and Airyscan 2 technology (bottom). (C) Measurements of nucleolar R-loops dynamics by FRAP on RHINO foci inside nucleoli. The fluorescence within the red circle was bleached (false colour images) and the recovery monitored over time. […] (D) Labelling of Tel-R-loops in live U2OS cells co-expressing RHINO and iRFP-TRF2. Several telomeres show directly adjacent or overlapping labelling of R-loops (magnified details 1-5). […] (E) Measurements of Tel-R-loops dynamics by FRAP of wild-type RHINO compared to both mutants and diffuse GFP at labelled telomeres. False colour images show the wild-type RHINO labelled cell with the bleach region (red circle). The curves display the mean intensity (+/−SD) of RHINO foci, RHINO mutants and diffuse GFP as control. […]

| Molecule | number of R-loops foci detected by RHINO ([1]; one-hour treatment, bulk cell population of U2OS cells) | reduction in the number of R-loops foci ([1]; same RHINO-expressing cells imaged before and one hour after treatment) [%] | restored initial fluorescence intensity after photobleaching [2] [%] | fluorescence recovery relative to initial intensity ([3]; major fraction of telomeric R-loops, within 10-15 seconds after photobleaching) [%] | fluorescence recovery, second population of telomeric R-loops ([3]; other (minor) population of telomeric R-loops) |
| --- | --- | --- | --- | --- | --- |
| CC(C)[C@]12O[C@H]1[C@@H]1O[C@]13[C@]1(O[C@H]1C[C@H]1C4=C(CC[C@@]13C)C(=O)OC4)[C@@H]2O [triptolide] | significantly decrease | 46 | – | – | – |
| RHINO: genetically encoded RNA:DNA hybrid-binding sensor; fusion protein comprising 3 HBDs and a reporter domain (e.g., a fluorescent protein) (protein) MFYAVRRGRKTGVFLTWNECRAQVDRFPAARFKKFATEDEAWAFVRKSASVDGTAGPGSAVFYAVRRGRKTGVFLTWNECRAQVDRFPAARFKKFATEDEAWAFVRKSASVDGTAGPGSAVFYAVRRGRKTGVFLTWNECRAQVDRFPAARFKKFATEDEAWAFVRKSASVDGTAGPGSTGVTGKLDPPVATMVSKGEEDNMASLPATHELHIFGSINGVDFDMVGQGTGNPNDGYEELNLKSTKGDLQFSPWILVPHIGYGFHQYLPYPDGMSPFQAAMVDGSGYQVHRTMQFEDGASLTVNYRYTYEGSHIKGEAQVKGTGFPADGPVMTNSLTAADWCRSKKTYPNDKTIISTFKWSYTTGNGKRYRSTARTTYTFAKPMAANYLKNQPMYVFRKTELKHSKTELNFKEWQKAFTDVMGMDELYK | – | – | 90 | 88 | little to no recovery |
